# Test results: the nanobody polyreactivity screen of Harvey et al. (2022)
# Assay: yeast display, Sf9 membrane polyspecificity reagent, FACS + sequencing; frameworks hold sequencing errors
# Summary of the method: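 After 36–48 hours of galactose induction, yeast (Saccharomyces cerevisiae BJ5465) displaying a synthetic nanobody library were stained at 4 °C for 1 hour with 10% biotinylated, detergent-solubilized Sf9 membrane reagent. Streptavidin microbeads enriched the stained cells before FACS sorting into low and high (top ~1%) gates on anti-HA and streptavidin fluorescence. Each clone's polyreactivity label reflects its gate of origin.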
row,Sequence,polyreactivity (PSR sort gate)
1,QVQLVESGGGLVQAGGSLRLSCAASGSTFPPYVMGWYRQAPGKERELVAAITWSSGSTYYADSVKGRFTISRDNAKNTVYLQMNSLKPEDTAVYYCAARAYRWGQGTQVTVSS,low polyreactivity
2,QVQLVESGGGLVQAGGSLRLSCAASGLTIWRYAMGWYRQAPGKETEFVASISQNGGRTDYADSVKGRFTISRDNAKNTVYLQMNSLKPEDTAVYYCAARRYYGVYYAFYFWRQGTQVTVSS,high polyreactivity
3,QVQLVESGGGSVQAGGSLRLICAASGSTFSDYDMGWYRQAPGKERELVAAISIGGRTNYADSVKGRFTISRDNAKNTVYLQMNSLKPEDTAVYDCAADSQSIYAYWPGGGYGYWGQGTQVTLSS,low polyreactivity
4,QVQLVESGGGLVQAGGSLRLSCAAYGSTITYYPMGWYRQAPGKERELVAAISGSGRTHYADSVKGRFTISRDNAKNTVYLQMISLNPEDTAVYYCNARQYTYNYAFTRCKYDYWGQGTQVTVSS,high polyreactivity
5,QVQLVESGGGIVQAGVSLRLSCAASGSTFRDYAMGWSRPAPGKERELVAAISNSGGRTYYADSVKGRFTISRDNAKNTVYLQMYSLKPEDTAVYYCNAGRQTKWGQGTQVTVSS,high polyreactivity
6,QVQLVESGGGLVQAGGSLRLSCAASGSIFTVNAMGWYRQAPGKERELVAAITFGGGRTYYADSVKGRFTISRDNAKNTVYLQMNSLKPEDTSVYYCAVSRKGLGSVEYWGQGTQVTVSS,low polyreactivity
7,QVQLVESGGGLGQAGGSLRLSCAASGRTFLFNAMGWYRQAPGKDRELVAAISSGGGSTYYADSVKGRFTISRDNAKNTDYLEMNSLKPEDTAVYFCAAYPYYYRYNYWGQGTQVTVSS,high polyreactivity
8,QVQLVESGGGLVQAGCSLRLSCAASGRIFGGYAMGWYRQAPGKERELVAAISSGGNTKYADSVKGRFTISRDNAKNTVYLQMNSLKPEDSAVYYCAAKFAQPDYRYDYWGQGTQVSVSS,high polyreactivity
9,QVQLVESGGGLVQAGGSLRLSCAASGRTYLYYVMGWYIQAPGKEREVVAAISYSGGSTYYADSVKGRFTISRDNAKNTVYLQMNSLKPEDTAVYYCTAVPVVRAGHGYDSWGQGTQVTVSS,high polyreactivity
10,QVQLVESGGGLVQAGGSLRLSCAASGFIFDDNAMGWYRQAPGKERELVAAITSGGGSTYYADSVKGRFTISRDNAKNTVYLQMNSLIPEDTAVYYCNAVPSQHDEFDYWGQGTHVTVSS,low polyreactivity
11,QVQLVESGGGLVQAGGSLRLSCAASGRTFTIYAMGWYRQAPGKERELVAAISWSDGSTYYADSVKGRFTISRDNAKNTVYLQMNSLKPEDTAVYSCAREVYGDASAPDMDYWGQGTQVTVSS,low polyreactivity
12,QVQLVESGGGLVQAGGSLRLSCAAMGWYRQAPGKERELVATITWSGGSTYYADSVKGRFTISRDNAKNTVYLQMNSLKPEDTAVYYCNARATLLSPANTIRGYDYWGQGTQVTVSS,low polyreactivity
13,QVQLVESGGGLVQAGGSLRLSCAASGSTFRHYAMGWYRQQPGKERELVAAISSRGGSTYYADSVKGRFTISRDNAKNTVYLQMNSLKPEDTAVYYCNVVGYLRPSYRHMDYWGQGTQVTVSS,high polyreactivity
14,QVQLVESGGGLVQAGGSLRLSCAASGSIFGYYAMGCYRQAPGKERELDAAISASGGSTYYADSVKGRFTISRDNAKITVYFHMNSLKPEDTAVYYCAAVRSVTYIWARYPYGLEYCGQGTQVTVSS,high polyreactivity
15,QVQLQDSGGGLVQAGGSLRLSCAASGTIFWYSDLGWYRQAPGKERKFVAGIGFGSNSNFADSVRGRFTISRDNAKNTVYLQMNSLKPEDTAVYYCAAVWFDYSTHRYWGQGTQVTVSS,high polyreactivity
16,QVQLVESGGGLVQAGGSLRLICAATGFTFLFYDMGWYRQAPGKERALVAASTSDGSTYYADSVKGRFTISRDNAKNTVYLQMNSLKPEDTAVYYCNADEPDEAYLYQSDYWGQGTQVTVSS,low polyreactivity
17,QVQLVESGGGLVQAGGSLRLSCAASGLIFRVYAMGWYRQAPGKERELVAAISISDGTTNYADSVKGRFTISRDNAKNTVYLQMNSLKPEDTAVYYCAADYDFYDFSYQSWSEENYWGQGTQVTVSS,low polyreactivity
18,QVQLVESGGGIVQAGGSLRLSCAASGIIFRAYAMGWSRQAPGKERELVAAISWSGGSTYYADSVKGRFTISRDNAKYTVYLQMNSLNPEDTAVYYCAAESLVYDFDYWGQGTQVTVSS,high polyreactivity
19,QVQLVESGGGLLQAGGSLRLSCSASGSTFDDYAMGWYRQAPGKERELVAAIRWSGGSTYYADSVKGRFTISRDNAKNTVYLQMKSLKPEDTAVYYCNADGRRGRYDYWGQGTQVTVSS,low polyreactivity
20,QVQLVESGGGLVQAGGSLRLSCAASGLTLSGYAMGWYRQAPGKERELVAAISSTGGSTYYADSVKGRFTISRDNAKNTVYLQMNSLKPEDTAVYYCAKGFSPTRVRLRYPRYDTYNHWGQGTQVTVSS,high polyreactivity
21,QVQLVESGGGLVQAGGSLRLSCAASGSTFYRNAMGWYRQAPGKERELVAAISGSDGSTYYADSVKGRFTISRDNAKNTVYLQMNSLKPEDTAVYYCNARRWWVIRDYWGQGTQVTVSS,high polyreactivity
22,QVQLVESGGGLVQAGGSLRLSCAASGITFHPYAKGWYRQAPGNEREFVAVISFRGGRTYYADSVKGRFTISRDNAKNNVYLQMNSLKPEDTAVYYCAAQYVSRRYSRYNYWGQGTQVTVSS,high polyreactivity

row,Sequence,polyreactivity (PSR sort gate)
1,QDQLVESGVGLVQAGGSLRLSCAASGRTFYYNTMGWYRPAPGKETEFVATITSTHDTNYADSVKGRFTISRDNAKNSVYLQMNSLKPEDTAVYYCAKGYLNYGRDWDFDYWGHGTQVTVSS,low polyreactivity
2,QVQLVESGGGLFQAGGSLRLSCAASGYTFPLYDMGWYRQAPGKERELVADINIGGASTYYADSVKGRFTISRDNAKNTVNLQMNSLKPEDTAVYYCAKEYNDGYFPTFDYDYWGQGTQVTVSS,low polyreactivity
3,QVQLVESGGGLVQAGGSLRLSCAASGRIFYQNTMGWYRQAPGKERELVASISTTGGNTYYADSVKGRFTISRDNAKNTVYLQMNSLKPEDTAVYYCNAVRSVYLYGYIYGVDYWGQGTQVTVSS,low polyreactivity
4,QVQLVESGGGLVQAGGSLRFSCAASGNILPSNAMGWYRQAPGKERELVAVINSSGNTNYADSVKGRFTISRDNAKKTVYLQMNSLKPEDTAVYYCVIWFRYDRARKLYYWGQGTQVTVSS,high polyreactivity
5,QVQLVESGGGLVQAGGSLRLSCAASGRIFQLYAMGWYRQRPGKERELVAAIRYSGDSTYYADSVKGRFTISRDNAKNTVYLQMNSLKPEDTAVYYCAAYWVYLSYYRYDYWGQGTQVTVSS,high polyreactivity
6,QVQLVESGGGLVKAGGSLRLSCAASGRTFFRNAMGWYRQAPGKEREFVAAINSSGGSTYYADSVKGRFTISRDNAKNTVYFQMNSLKPEDTAVYYCARYHYPFYKPYGFGYWGQGTQVTVSS,high polyreactivity
7,QVQLVESGGGLDQAGGSLRLTCAASGNTFRSYAMGWSRQAPGKEREFVAAISLSGGNTYYADSVKGRFTISRDNAKNTVYVQMNSLKPEDTAVYYCAADYEYSGYGYWGQGTQVTVSS,high polyreactivity
8,QVQLVESGGGLVQAGGSLRLSCAASGSIFGYYDMGWYRQAPGKERELVAAISSRGGITYYADSVKGRFTISRDHAKNTVYLQMNSLKPEDTAVYYCAAYAYFHRREGYWVQGTQVTVSS,high polyreactivity
9,QVQLVESGGGLVQAGGSLRLSCAASGFTLDYYAMGWYRKAPGKERELVAAISFSGGSTYYADSVKGRFTISRDNAKNTVYLQMNSLKPEDTAVYFCAADPQIVWYDYWGQGTQVTVSS,low polyreactivity
10,QVQLVESGGGLVQAGGSLRLSCAASGFTFVRNTMGWYRQPPGKETELVAAINRSGGNTYYADSVKGRFTISRDNAKNTVYLQMNCLKPEDTAVYYCAADGFGRRDYYYWGQGTQVTVSS,high polyreactivity
11,QVQLVESGGGLVQAGGSLRLSCAASGRTSNIYAMGWYRQAPGKERELVAAIRTGGSTNYADSVKGRFTISRDNAKNSVYLQMNSLKPEDTAVYYCAATSRRSRPAEEYWGQGTQVTVSS,high polyreactivity
12,QVQLVESGGGLVQAGGSLRISSAASGSTFSRYAMGWYRQAPGKERELVAAISWRGGRTYYADSVKGRFTISRDNAKNTVYLQMNSLKPEDTAVYYCNAVSSFTSPRYDYWGQGTQVTVSS,high polyreactivity
13,QVQLVESGGGLVQAGGSLRLSCAASGSTFAGNAMGWYRQAPGKERELVAAITSGTGTHYADSVKGRFSISRDNAKNTVYLQMNSLKPEDTAVYYCAAEVWSWAGIWGYEYWGQGTQVTVSS,low polyreactivity
14,QVQLVESGGGLVQAGGSLRLSCAASGITFWSNAMGWYRQAPGKERELVAAITSSGGSTYYADSVKGRFTISRDNAKNNVYLQMNSLKPEDTAVYYCAAPISRSAGWDSYDYWGQGTQVTVSS,low polyreactivity
15,QVQLLESWGGLVQAGGSLRLSCAASGLIFYRNAMGWYRQAHGKERELVAAISVSGGSTYYADSVKGRFTISRDNAKNTVYLQMNRLKPEDTAVYYCAAKTWRSRGKEMDYWGQGTQVNVSS,high polyreactivity
16,QVQLVESGGGLVQAGGSLRLSCAASGGTCGTNAMGWYRQAPGKEREFVAAISRSGGSTNYADSVKGRFTISRDKAKNTVYLQMNSLKPEDTAVYYCATRVIVVPLGGGYYSWGQGTQVTVSS,high polyreactivity
17,QVQLVESGRGLVQAGGSLRLSCAASGRIFHYNAMVWYRQAPRKERELVAAISGSGGSTYYADTVKGRFTISRDIAKNTVYLQMNSLKPEDTADYYCGDKRRTLGGYWGQGTQVTVSS,high polyreactivity
18,QVQLVESGGGLVQAGGSLRLSCAASGRTFYYYAMGWYRQEPGKERELVAAISWSGGRTYYADSVKGRFTISRDNAKNTVYLQMNSLNPEDTAVYYCNAEPPRGYTVSSGGEMDYWGQGTQVTVSS,low polyreactivity
19,QVQLVESGGGLVQAGGSLRLSCAASGRTFSRNAMGWYRQAPGKERELVATITSDGSTNYADSVKGRFTISRDNAKNTVYLQMNSLKPEDTSVYYCAADEASSRGYYDYDYWGQGTQVTVSS,low polyreactivity
20,QVQLVESGGGLVQAGGSLRLSCAASGSNFVKYVMGWYRQAPGKERELDAAITWRGGRTYYADSVKGRFTISRDNEKNTVYLQMNSLKPEDTAVYYCAAYDQSLYGRRYDYWGQGTQVTVSS,high polyreactivity
21,QVQLVESGGGLVQAGGSLRLSCAASGRIFVTNAMGGYRQAPGKEREFVAGISFSGDGRTYYADSVKGRFTISRDNAKNTVYLQMNSLKPEDSAVYYCAAPHRSRTHELDYWGQGTQVTVSS,low polyreactivity
